Test results as given in US20220249640A1.

Target: PD-1 (soluble, biotinylated, on sensors or coated on plates) (human) (UniProt Q15116)
Test: method not stated at the list; Octet curves in FIG. 29

PD-1 (soluble, biotinylated, on sensors or coated on plates) (human), sequence (Q15116 25-167 limits assumed): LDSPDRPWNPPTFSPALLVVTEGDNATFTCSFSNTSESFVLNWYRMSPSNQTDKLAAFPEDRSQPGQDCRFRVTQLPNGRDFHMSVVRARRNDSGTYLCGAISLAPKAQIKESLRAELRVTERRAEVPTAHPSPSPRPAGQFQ

B1: PD1#3 scFv-Fc (Fc fusion, part only; not given: Fc, linker, domain order, not shown: another chain or arm of the molecule; a dimerising Fc or GST; small tags and cut ends)
VH: QVQLVQSGAEVKKPGSSVKVSCKTSGYTFNRFGLTWVRQAPGQGLEWMGWTNPYNGNTRYAQKFQGRVTMTTDTSTSTAYMELRSLRSDDTAMYFCARVVAVNGMDVWGQGTTVTVSS
VL: NFMLTQPHSVSESPGKTVTISCTRNSGSIAAYYVQWYQQRPGSSPTTVIYEDNQRPSGVPDRFSGSIDSSSNSASLTISGLKTEDEADYYCQSYDSSNLWVFGGGTKLTVL
- Kd: 0.1 nM
